In publication PMC11127010 (Proceedings of the National Academy of Sciences of the …, 2024):

Target: the molecule itself
Experiment: SEC-MALS

| Protein | stoichiometry N |
| --- | --- |
| hSTIM1-WT EF-SAM domain (aa58 to 201) (domain or fragment) SEDEKLSFEAVRNIHKLMDDDANGDVDVEESDEFLREDLNYHDPTVKHSTFHGEDKLISVEDLWKAWKSSEVYNWTVDEVVQWLITYVELPQYEETFRKLQLSGHAMPRLAVTNTTMTGTVLKMTDRSHRQKLQLKALDTVLFG | ≥ 2 |
| hSTIM1 EF-SAM domain (aa58 to 201) α9-mutant (V178A-L179A) (domain or fragment) SEDEKLSFEAVRNIHKLMDDDANGDVDVEESDEFLREDLNYHDPTVKHSTFHGEDKLISVEDLWKAWKSSEVYNWTVDEVVQWLITYVELPQYEETFRKLQLSGHAMPRLAVTNTTMTGTAAKMTDRSHRQKLQLKALDTVLFG | ≥ 2 |
